Substrate in the data set: O=[N+]([O-])c1ccc(O[C@@H]2O[C@@H](CO)[C@H](O)[C@H]2O)cc1
The data set is described as follows: purified protein. Particulars: general assay: sodium acetate buffer pH 5.5, 37 °C.

B1: BLLJ_1852 (Bifidobacterium longum subsp. longum JCM 1217) (protein)
chain: DTVPTNNLIAAYDFTTKPSDGKTVANSAPNATLGAAEVQNSADSLWADDALTLSGGAKTGTGDWVKLPSNLLSGKDAATVQLEVKADSSMLNAFHFLWNIGNDSSDTEYFFATLNCGSSRNPLVGLKSGGTETLVQSSSCVAKADQWLSVTATIDGTAAKLYIDGTQVASGTVPAKLSSVKDQSLNTIGRSPWPDNLFKGAVSNFRVYDAALTADQVAAISTADASIHAGELTGSVLNGIIIPTTVDDPFISLPTANGVTWASSDSSVIATDGTVNQPAKGEAAKTVTLTAAVTVRGQTATKEFTVTVNPTTKTAAEQLKEVAAGYVIPSVVRSGDALPAAVNGTTVTVTSTKDVAVEDGKITIDGDEATTGTITVEFSKNGLAGIEPITKAFTVKVLPAAKSATIAAYDRNATGENEANNGDVAYSMHLALQNADGSYTPYNENYGIFFARSPKAQKLNENLDGNDYRSLKDPSLFRMADGTYGVISVRTNRGTATGDSTAKSSVLIATSEDLLTYSEQENSGSIVDLGETNGVNAPYAVYDTASKQYVVGWADDNGVAKYTTFDSLKGSTSKHGSVLYGSVAKSGVLAADGVQGIANFRSGATIAVDEATVKALNTRYGRSENTGTSNLTDITVKKGASIDEVTAQLPKNVDLTYSDGSTGSLPISSWNTEGIDLTKVGDYTVTGTVKQTEYQIPFAEDRADPSVYKWQWTHEADGKEVTETKFLMIASNDIQGDVTWQHGSPHMPFRMADTISGLADEPGNPNALIQSNGYNNKEVSLLKAGDKDSEGNAIMHSFWAPEIHEIDGRLTILFMAGYGNTWSNGKSVYMQLKQDADGHDLDPADPDNWTVPTPIYRNDASLLNGNKQLAATASGGVGMSLDMTYFQDADGRSYYAWQQLGATYIATMDPKDPAHVTSSPVRIVTPEYAWNAAIAEGPNVTLRDGKLYLMFSGSGVGKTYTTGLAVADASGTDLTDPASWTVLNYPIQKSGPFNGEMQLGTGHGMWSEDEDGNQIYVFHAYATKNLGSVNATGRDMFVRRVHWAADGMPVFDMSSSEELASKTVSVTVKVVDDTVTVDKTDLSKALASAKQLRESDYTAASWKAFAAALASAEKVYADENASQKDVDDATAALNKAQAALVKVDGSDSGDGSSDSTKPGDGSSIDAGATGDKTGNKLGLS
As to B1, the Km is given as 9.8 mM and the kcat is 19.2 s⁻¹.

Values taken from paper doi:10.1101/379495v1.
